Legend:
Assay in all cases: SPR; Fcγ receptor affinities (KD) by Surface Plasma Resonance; mAb up to 6.4 µM
hFcγRIIb (human) = hFcγRIIb (human) (UniProt P31994)
hFcγRIIa (human) = hFcγRIIa (human) (UniProt P12318)
hFcγRI (human) = hFcγRI (human) (UniProt P12314)
hFcγRIIIa (human) = hFcγRIIIa (human) (UniProt P08637)
mFcγRIIb (mouse) = mFcγRIIb (mouse) (UniProt P08101)
mFcγRIII (mouse) = mFcγRIII (mouse) (UniProt P08508)
mFcγRIV (mouse) = target: mFcγRIV (mouse)
mFcγRIV (mouse), sequence (A0A0B4J1G0 21-249): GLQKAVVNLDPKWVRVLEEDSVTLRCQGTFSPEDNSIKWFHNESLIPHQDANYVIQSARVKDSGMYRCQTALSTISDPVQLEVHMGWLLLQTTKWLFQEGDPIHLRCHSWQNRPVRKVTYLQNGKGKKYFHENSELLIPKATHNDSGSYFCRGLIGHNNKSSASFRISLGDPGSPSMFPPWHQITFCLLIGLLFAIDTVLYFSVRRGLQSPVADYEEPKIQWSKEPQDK

hFcγRIIa (human), sequence (P12318 34-317): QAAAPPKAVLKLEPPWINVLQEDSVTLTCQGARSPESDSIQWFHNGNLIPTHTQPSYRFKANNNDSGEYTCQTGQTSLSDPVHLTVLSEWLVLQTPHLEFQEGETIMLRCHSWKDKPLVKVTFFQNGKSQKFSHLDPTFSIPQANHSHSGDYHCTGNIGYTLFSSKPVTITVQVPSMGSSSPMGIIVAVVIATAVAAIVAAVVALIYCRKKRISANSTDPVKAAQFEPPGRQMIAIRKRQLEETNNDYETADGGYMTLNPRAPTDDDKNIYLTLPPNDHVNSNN
mFcγRIIb (mouse), sequence (P08101 30-330): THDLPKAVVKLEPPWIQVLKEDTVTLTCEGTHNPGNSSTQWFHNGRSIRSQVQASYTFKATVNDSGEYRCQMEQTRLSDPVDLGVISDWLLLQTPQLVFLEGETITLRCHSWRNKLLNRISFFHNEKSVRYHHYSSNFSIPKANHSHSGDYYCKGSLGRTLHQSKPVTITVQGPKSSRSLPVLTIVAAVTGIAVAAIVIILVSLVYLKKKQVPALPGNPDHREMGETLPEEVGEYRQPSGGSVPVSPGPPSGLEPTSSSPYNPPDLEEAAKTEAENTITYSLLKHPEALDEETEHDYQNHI
hFcγRI (human), sequence (P12314 16-374): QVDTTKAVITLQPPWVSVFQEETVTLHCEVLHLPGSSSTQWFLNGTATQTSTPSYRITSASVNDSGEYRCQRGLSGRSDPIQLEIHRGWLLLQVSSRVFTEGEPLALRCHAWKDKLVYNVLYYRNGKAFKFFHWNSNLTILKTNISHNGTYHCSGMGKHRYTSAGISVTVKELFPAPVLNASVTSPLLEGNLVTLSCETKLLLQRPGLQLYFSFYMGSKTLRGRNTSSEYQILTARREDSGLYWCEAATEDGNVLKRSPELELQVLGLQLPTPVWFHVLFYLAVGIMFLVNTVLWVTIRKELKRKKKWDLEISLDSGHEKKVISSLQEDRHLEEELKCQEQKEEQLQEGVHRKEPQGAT
hFcγRIIb (human), sequence (P31994 43-310): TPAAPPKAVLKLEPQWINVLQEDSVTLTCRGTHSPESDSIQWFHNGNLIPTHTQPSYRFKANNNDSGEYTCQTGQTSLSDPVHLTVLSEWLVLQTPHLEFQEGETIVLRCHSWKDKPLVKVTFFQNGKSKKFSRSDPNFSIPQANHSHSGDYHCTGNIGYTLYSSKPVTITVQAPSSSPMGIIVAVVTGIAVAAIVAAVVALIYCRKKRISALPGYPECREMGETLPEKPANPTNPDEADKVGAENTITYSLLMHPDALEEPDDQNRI
mFcγRIII (mouse), sequence (P08508 31-261): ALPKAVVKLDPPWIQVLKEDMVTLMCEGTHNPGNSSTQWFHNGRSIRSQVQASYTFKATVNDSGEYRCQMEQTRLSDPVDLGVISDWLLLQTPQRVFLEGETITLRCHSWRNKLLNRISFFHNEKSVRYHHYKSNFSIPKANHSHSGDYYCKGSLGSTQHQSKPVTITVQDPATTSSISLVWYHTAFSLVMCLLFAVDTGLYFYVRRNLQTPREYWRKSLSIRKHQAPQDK
hFcγRIIIa (human), sequence (P08637 17-254): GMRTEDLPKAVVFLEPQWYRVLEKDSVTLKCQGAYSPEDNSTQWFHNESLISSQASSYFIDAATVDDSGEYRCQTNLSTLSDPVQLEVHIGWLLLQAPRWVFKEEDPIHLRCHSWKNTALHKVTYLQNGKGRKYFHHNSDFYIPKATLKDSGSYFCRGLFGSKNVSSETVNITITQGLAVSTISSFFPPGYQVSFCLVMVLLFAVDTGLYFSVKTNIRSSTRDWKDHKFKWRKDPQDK

| Kd (hFcγRIIb (human)) | Kd (hFcγRIIa (human)) | Kd (hFcγRI (human)) | Kd (hFcγRIIIa (human)) | Kd (mFcγRIIb (mouse)) | Kd (mFcγRIII (mouse)) | Kd (mFcγRIV (mouse)) | Substance |
| --- | --- | --- | --- | --- | --- | --- | --- |
| 2060 nM | 794 nM | 0.86 nM | 472 nM | – | – | – | 3D6-huIgG1 (antibody) |
| – | – | – | – | > 4500 nM | – | – | SAR255952 (antibody) |
| 1830 nM | 2640 nM | 244 nM | – | – | – | – | SAR228810 (antibody) |
| – | – | – | – | 456 nM | 119 nM | 22 nM | 3D6mIgG2b (antibody) |

— article PMC6264593
